Source: patent publication US20240010724A1 (Amgen, published 2024)
Where a chain is given by its changes, count along the chain named. One block for each binder: values may come before it.

Legend:
Experiment in all cases: flow cytometry, transfected 293T cells
[1] = target: T1, huCDH19(44-141)::muCDH19(140-770) (human/mouse chimera)
T1 construct: also called Hu EC1

[2] = target: T2, huCDH19(44-249)::muCDH19(248-770) (human/mouse chimera)
T2 construct: also called Hu EC1-2

[3] = target: T3, muCDH19(44-461)::huCDH19(464-772) (human/mouse chimera)
T3 construct: also called Hu EC5
T3 chain: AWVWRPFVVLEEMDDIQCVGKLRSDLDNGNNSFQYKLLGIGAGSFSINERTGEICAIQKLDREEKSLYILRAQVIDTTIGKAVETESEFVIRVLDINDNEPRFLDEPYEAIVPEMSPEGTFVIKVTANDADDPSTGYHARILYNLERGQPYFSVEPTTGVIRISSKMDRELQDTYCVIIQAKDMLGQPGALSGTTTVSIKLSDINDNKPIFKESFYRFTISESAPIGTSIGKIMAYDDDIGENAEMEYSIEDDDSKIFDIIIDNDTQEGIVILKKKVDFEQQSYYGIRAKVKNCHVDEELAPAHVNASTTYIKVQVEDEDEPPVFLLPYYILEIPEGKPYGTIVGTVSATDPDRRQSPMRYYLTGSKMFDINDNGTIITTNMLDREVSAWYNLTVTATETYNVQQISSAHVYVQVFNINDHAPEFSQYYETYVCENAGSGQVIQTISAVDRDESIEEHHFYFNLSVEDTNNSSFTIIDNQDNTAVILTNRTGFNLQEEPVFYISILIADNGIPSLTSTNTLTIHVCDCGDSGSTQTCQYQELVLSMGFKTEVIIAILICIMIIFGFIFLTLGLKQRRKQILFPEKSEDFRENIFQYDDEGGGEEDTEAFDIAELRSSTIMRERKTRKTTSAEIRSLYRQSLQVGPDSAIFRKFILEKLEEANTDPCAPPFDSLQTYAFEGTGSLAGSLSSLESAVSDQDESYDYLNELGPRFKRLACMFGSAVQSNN

[4] = target: T4, muCDH19(44-247)::huCDH19(250-364)::muCDH19(363-770) (human/mouse chimera)
T4 construct: also called Hu EC3

[5] = target: T5, muCDH19(44-362)::huCDH19(365-772) (human/mouse chimera)
T5 construct: also called Hu EC4-5
T5 chain: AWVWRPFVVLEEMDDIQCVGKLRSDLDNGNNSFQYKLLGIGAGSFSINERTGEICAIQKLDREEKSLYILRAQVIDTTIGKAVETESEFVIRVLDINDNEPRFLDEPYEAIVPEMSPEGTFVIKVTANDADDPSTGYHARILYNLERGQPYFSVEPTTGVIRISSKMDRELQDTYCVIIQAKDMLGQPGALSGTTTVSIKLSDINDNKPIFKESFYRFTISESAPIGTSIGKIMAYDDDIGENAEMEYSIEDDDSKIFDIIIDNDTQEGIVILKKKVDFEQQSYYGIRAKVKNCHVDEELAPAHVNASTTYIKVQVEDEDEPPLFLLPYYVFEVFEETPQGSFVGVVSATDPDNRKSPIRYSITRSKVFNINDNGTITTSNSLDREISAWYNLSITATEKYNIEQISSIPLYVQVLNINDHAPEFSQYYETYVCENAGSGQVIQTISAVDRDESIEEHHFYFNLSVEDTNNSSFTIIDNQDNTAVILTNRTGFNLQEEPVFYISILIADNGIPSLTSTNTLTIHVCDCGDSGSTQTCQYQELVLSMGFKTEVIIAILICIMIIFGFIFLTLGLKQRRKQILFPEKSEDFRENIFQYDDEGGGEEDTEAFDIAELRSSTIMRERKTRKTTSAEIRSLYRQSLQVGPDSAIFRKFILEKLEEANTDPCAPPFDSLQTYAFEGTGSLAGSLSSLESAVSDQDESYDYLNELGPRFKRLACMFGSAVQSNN

[6] = target: T6, muCDH19(44-139)::huCDH19(142-364)::muCDH19(363-770) (human/mouse chimera)
T6 construct: also called Hu EC2-3

[7] = target: T7, muCDH19(44-139)::huCDH19(142-249):muCDH19(248-770) (human/mouse chimera)
T7 construct: also called Hu EC2
T7 chain: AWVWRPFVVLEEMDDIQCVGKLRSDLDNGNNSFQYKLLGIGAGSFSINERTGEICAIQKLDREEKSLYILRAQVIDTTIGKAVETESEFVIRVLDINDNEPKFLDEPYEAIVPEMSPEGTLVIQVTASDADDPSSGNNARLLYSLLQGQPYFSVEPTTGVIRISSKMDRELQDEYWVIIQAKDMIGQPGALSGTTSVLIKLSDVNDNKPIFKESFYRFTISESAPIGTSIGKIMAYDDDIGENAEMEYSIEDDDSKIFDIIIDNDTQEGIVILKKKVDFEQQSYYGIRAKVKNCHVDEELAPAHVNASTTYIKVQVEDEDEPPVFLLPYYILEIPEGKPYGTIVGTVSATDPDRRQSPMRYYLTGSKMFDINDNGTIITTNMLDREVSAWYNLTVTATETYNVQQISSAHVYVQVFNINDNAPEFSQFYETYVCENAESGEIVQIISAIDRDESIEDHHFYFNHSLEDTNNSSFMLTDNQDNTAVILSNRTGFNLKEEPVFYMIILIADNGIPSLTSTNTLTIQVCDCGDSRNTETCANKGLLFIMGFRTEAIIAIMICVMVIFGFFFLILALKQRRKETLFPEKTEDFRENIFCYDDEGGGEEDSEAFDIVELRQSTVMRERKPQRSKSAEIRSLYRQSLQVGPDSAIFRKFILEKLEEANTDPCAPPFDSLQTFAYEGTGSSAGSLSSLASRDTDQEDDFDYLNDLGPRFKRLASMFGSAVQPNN

muCDH19(44-770) = target: T8, muCDH19(44-770) (mouse)
T8 construct: also called Mu EC1-5
T8 chain: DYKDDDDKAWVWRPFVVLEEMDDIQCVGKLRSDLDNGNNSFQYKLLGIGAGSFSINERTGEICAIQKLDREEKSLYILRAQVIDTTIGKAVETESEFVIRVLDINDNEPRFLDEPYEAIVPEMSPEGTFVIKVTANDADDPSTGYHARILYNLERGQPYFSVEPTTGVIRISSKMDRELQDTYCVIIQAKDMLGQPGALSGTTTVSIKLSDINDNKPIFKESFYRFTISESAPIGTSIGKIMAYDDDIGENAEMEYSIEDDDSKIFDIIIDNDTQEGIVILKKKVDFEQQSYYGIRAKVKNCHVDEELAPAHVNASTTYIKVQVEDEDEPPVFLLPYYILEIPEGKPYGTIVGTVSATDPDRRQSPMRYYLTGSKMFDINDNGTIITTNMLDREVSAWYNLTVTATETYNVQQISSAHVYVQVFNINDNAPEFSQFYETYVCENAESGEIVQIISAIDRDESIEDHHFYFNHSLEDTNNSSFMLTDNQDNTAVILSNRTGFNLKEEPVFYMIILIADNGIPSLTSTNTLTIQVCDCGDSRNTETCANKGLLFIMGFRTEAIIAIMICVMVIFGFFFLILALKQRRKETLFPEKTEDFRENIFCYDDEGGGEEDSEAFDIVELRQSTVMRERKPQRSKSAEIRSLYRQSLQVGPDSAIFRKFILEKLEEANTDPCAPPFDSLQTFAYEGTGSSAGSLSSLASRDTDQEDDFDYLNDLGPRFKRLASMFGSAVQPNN

huCDH19(44-772) = target: T9, huCDH19(44-772) (human, UniProt Q9H159 44-772)
T9 construct: also called Hu EC1-5

binding result [1]: binds
binding result [2]: binds
B1: anti-CDH19 antibody 13880 (clone 25F8) (antibody, human IgG1, lambda, V domains shown)
VH: QVQLVQSGAEVKKPGASVKVSCKASGYTFTSYYIHWVRQAPGQGLEWMGIINPSGGSTRYAQKFQGRVTMTRDTSTSTVFMELSSLRSEDTAVYYCARGGIQLWLHFDYWGQGTLVTVSS
VL: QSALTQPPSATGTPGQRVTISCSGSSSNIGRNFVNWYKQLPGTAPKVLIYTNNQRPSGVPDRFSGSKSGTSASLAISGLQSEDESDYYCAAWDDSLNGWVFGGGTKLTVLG
notes: fully human XenoMouse monoclonal antibody; bin 2

binding result [1]: binds
binding result [2]: binds
B2: anti-CDH19 antibody 13882 (clone 26D1) (antibody, human IgG1, lambda, V domains shown)
VH: B1 VH with G26R, I34M, H35S, N52H, S57D, R59T, R72G, F80Y, Q102K
VL: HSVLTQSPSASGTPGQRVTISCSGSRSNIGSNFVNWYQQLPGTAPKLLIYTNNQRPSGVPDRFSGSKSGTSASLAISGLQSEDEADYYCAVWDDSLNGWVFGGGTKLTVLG
notes: as for B1

binding result [3]: binds
binding result [4]: binds
binding result [5]: binds
binding result [6]: binds
binding result [1]: binds
binding result [2]: binds
binding result [7]: binds
B3: anti-CDH19 antibody 14039 (antibody, human IgG1, lambda, V domains shown)
VH: QVQLVESGGGVVQPGGSLRLSCAASGFTFSSYGMHWVRQAPGKGLEWVAFIWYEGSNKYYAESVKDRFTISRDNSKNTLYLQMNSLRAEDTAVYYCARRAGIIGTIGYYYGMDVWGQGTTVTVSS
VL: SYELTQPPSVSVSPGQTASITCSGDRLGEKYTSWYQQRPGQSPLLVIYQDTKRPSGIPERFSGSNSGNTATLTISGTQAMDEADYYCQAWESSTVVFGGGTKLTVLG

binding result (muCDH19(44-770)): binds
binding result [3]: binds
binding result [4]: binds
binding result (huCDH19(44-772)): binds
binding result [5]: binds
binding result [6]: binds
binding result [1]: binds
binding result [2]: binds
binding result [7]: binds
B4: anti-CDH19 antibody 14304 (antibody, V domains shown)
VH: B3 VH with E54D, E62D, N84K
VL: B3 VL with T32V, R38K, L44I, T51N, R53W, E91D

binding result [1]: binds
binding result [2]: binds
B5: anti-CDH19 antibody 13589 (clone 4A9) (antibody, human IgG1, lambda, V domains shown)
VH: QVQLQESGPGLVKPSETLSLTCTVSGGSISGYYWSWIRQPPGKGLEWFAYFSYSGSTNYNPSLKSRVTLSVDTSKNQFSLKLSSVTAADTAVYYCARNWAFHFDFWGQGTLVTVSS
VL: QSVLTQPPSVSGAPGQRVTISCTGSSSNIGTGYAVHWYQQFPGTAPKLLIYGNNNRPSGVPDRFSGSKSGTSASLAITGLQAEDEADYYCQSYDSRLSGWVFGGGTKLTVLG
notes: fully human XenoMouse monoclonal antibody; bin 1; also called Alexa647-labelled 4A9

binding result [4]: binds
binding result [6]: binds
B6: anti-CDH19 antibody 13590 (clone 4B10) (antibody, V domains shown)
VH: QVQLVESGGGVVQPGRSLRLSCAASGFTFSSYDMHWVRQAPGKGLEWVAVISYDGTNEYYADSVKGRFTISRDTSKNTLYLQMNSLRAEDTAVYYCARERYFDWSFDYWGQGTLVSVSS
VL: EIVLTQSPGTLSLSPGERATLSCRASQSVSNTYLAWYHQRPGQAPRLLIYGASSRATGIPDRFSGSGSGTDFALTISSLEPEDFAVYYCQQYSNSWTFGQGTKVEIKR
notes: fully human XenoMouse monoclonal antibody; bin 4
